Among the data in patent publication KR20190016466A are RU and fold increase of affinity over WT values, retold here.

Test [1] addresses human FcRn (hFcRn) (human) (UniProt P55899). The test can be described thus: SPR (XPR36), hFcRn on chip, antibody flowed, pH 6.0.
The target is the same in test [2]. The test can be described thus: ELISA, antibody coated, hFcRn added, anti-6-His detection, pH 7.4; reference WT.
Test [3] shares this target. Briefly: SPR (XPR36), hFcRn on chip, antibody flowed, pH 7.4.
Test [4] has the same target. The test can be described thus: ELISA, antibody coated, hFcRn added, anti-6-His detection, pH 6.0; reference WT.

Chain of UniProt P55899 (P55899 24-297 limits assumed, form in doubt): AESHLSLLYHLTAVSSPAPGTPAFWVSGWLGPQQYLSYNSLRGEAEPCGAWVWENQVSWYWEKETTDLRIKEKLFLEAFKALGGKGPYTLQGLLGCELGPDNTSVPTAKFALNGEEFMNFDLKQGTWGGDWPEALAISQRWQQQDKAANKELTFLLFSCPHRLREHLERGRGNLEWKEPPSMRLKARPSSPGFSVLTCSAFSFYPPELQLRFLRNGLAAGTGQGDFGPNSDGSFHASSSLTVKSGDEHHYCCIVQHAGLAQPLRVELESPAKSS

As for HN (H462K/N463F) 변이 SO57 항체 (antibody), the RU in test [1] stood at 195 RU; in test [3], 100 RU. Besides, the fold increase of affinity over WT in test [2] was 17 배 (fold); in test [4] it was 18 배 (fold).
As to MN (M457L/N463S) 변이 SO57 항체 (antibody), the values for the RU in test [1] and in test [3] were 180 RU and 70 RU, respectively. Besides, the figures for the fold increase of affinity over WT in test [2] and in test [4] were 15 배 (fold) and 16 배 (fold), respectively.
Take “MST (M281Y/S283T/T285E) 변이 SO57 항체 (antibody)”: the RU came to 140 RU in test [1] and 20 RU in test [3]. Also, the fold increase of affinity over WT in test [2] was 2 배 (fold); in test [4] it was 12 배 (fold).
